B1: scFv; the commonest letter at each place (parent)
chain 1: EVKLDETGGGLVQPGRPMKLSCVASGFTFSDYWMNWVRQSPEKGLEWVAQIRNKPYNYETYYSDSVKGRFTISRDDSKSSVYLQMNNLRVEDMGIYYCTGSYYGMDYWGQGTSVTVS
chain 2: DVVMTQTPLSLPVSLGDQASISCRSSQSLVHSNGNTYLRWYLQKPGQSPKVLIYKVSNRFSGVPDRFSGSGSGTDFTLKISRVEAEDLGVYFCSQSTHVPWTFGGGTKLEIK

Assays:
[1] = variants of: B1; test: Kd (Tite-Seq); conditions: with fluorescein; format: scFv 4-4-20, heavy + light
[2] = variants of: B1; test: yeast surface expression (ratio to wild type); higher = more expressed; conditions: format: scFv 4-4-20, heavy + light

Variant | Kd [1] [µM] | yeast surface expression [2]
chain 1 G100R G104V M105S | ≥ 10 | 0.211
chain 1 D31A Y32K M34C | ≥ 10 | 1.1
chain 1 W33F N35T | ≥ 10 | 0.824
chain 1 T28Y M34W | 0.0692 | 0.6
chain 1 S101I Y107Q | ≥ 10 | 0.376
chain 1 T28K M34V | 0.00122 | 0.867
chain 1 W33I N35Y V37C | ≥ 10 | 0.443
chain 1 S101D D106R W108I | 0.00251 | 0.452
chain 1 D31G N35A | ≥ 10 | 0.664
chain 1 Y32W W36A | ≥ 10 | 0.204
chain 1 S101G M105E D106R | ≥ 10 | 0.604
chain 1 Y107L W108D | ≥ 10 | 0.326
chain 1 M105H | ≥ 10 | 1.06
chain 1 M105Y | 0.0129 | 0.866
chain 1 Y32Q M34G V37K | ≥ 10 | 1.04
chain 1 W33E W36L | ≥ 10 | 0.622
chain 1 S101I Y102W | ≥ 10 | 0.303
chain 1 Y102F G109N | ≥ 10 | 0.27
chain 1 Y103I G104P G109M | ≥ 10 | 0.279
chain 1 Y102E Y107A | ≥ 10 | 0.904
chain 1 N35H W36L | ≥ 10 | 0.718
chain 1 Y32K V37S | ≥ 10 | 0.852
chain 1 Y103F G109F | ≥ 10 | 0.237
chain 1 Y107I G109Q | ≥ 10 | 0.442

Variant | Kd [1] [µM] | yeast surface expression [2]
chain 1 W33N N35M | ≥ 10 | 0.792
chain 1 T28P V37P | ≥ 10 | 1.08
chain 1 M34W W36T | ≥ 10 | 0.686
chain 1 Y32I W36Y | ≥ 10 | 0.612
chain 1 G100T S101N G104K | ≥ 10 | 0.565
chain 1 T28I F29R | ≥ 10 | 0.695
chain 1 Y32H M34H | ≥ 10 | 0.674
chain 1 Y103A G104Y G109T | ≥ 10 | 0.211
chain 1 Y32A W33S V37G | ≥ 10 | 0.472
chain 1 F29S N35R | 0.0434 | 0.922
chain 1 Y107D G109R | ≥ 10 | 0.366
chain 1 D106Q W108G | ≥ 10 | 0.384
chain 1 Y102G G104F | ≥ 10 | 0.545
chain 1 D106L W108I | ≥ 10 | 0.314
chain 1 W36G V37N | ≥ 10 | 0.597
chain 1 W36G V37Q | ≥ 10 | 1.13
chain 1 T28S Y32S | 0.266 | 0.966
chain 1 S30L W33I | ≥ 10 | 0.639
chain 1 G100I | ≥ 10 | 0.852
chain 1 G100Y | ≥ 10 | 0.606
chain 1 W33T W36Y | ≥ 10 | 0.79
chain 1 T28L S30C | 0.00158 | 0.839
chain 1 W36K | ≥ 10 | 0.794
chain 1 D31V V37E | 0.205 | 0.807

Variant | Kd [1] [µM] | yeast surface expression [2]
chain 1 W108P | 0.00272 | 0.625
chain 1 S101C Y107S | ≥ 10 | 0.457
chain 1 Y103P M105K | ≥ 10 | 0.785
chain 1 T28G Y32M | ≥ 10 | 1.24
chain 1 Y103N G109P | ≥ 10 | 0.519
chain 1 S101L Y102A | ≥ 10 | 0.514
chain 1 F29T M34K | ≥ 10 | 0.35
chain 1 G100N S101I | ≥ 10 | 0.189
chain 1 D31V Y32L | 0.972 | 0.584
chain 1 G100E Y102G | ≥ 10 | 0.488
chain 1 F29G S30T N35R | ≥ 10 | 0.82
chain 1 Y102T G104W | ≥ 10 | 0.638
chain 1 Y32C V37Q | ≥ 10 | 0.692
chain 1 Y102L G104W | ≥ 10 | 0.263
chain 1 M105Q W108E | ≥ 10 | 0.438
chain 1 S101L D106K | ≥ 10 | 0.379
chain 1 N35G | 0.0102 | 0.989
chain 1 N35M | ≥ 10 | 0.715
chain 1 N35R | ≥ 10 | 0.534
chain 1 N35F | ≥ 10 | 0.708
chain 1 N35H | ≥ 10 | 0.793
chain 1 N35V | ≥ 10 | 0.596
chain 1 N35L | ≥ 10 | 0.692
chain 1 N35W | ≥ 10 | 0.6

Variant | Kd [1] [µM] | yeast surface expression [2]
chain 1 S101G Y102L | ≥ 10 | 1.06
chain 1 T28C F29P | ≥ 10 | 0.637
chain 1 Y32Q | ≥ 10 | 0.929
chain 1 G104A D106T | ≥ 10 | 0.78
chain 1 S101Q G109S | ≥ 10 | 0.645
chain 1 F29C W33E | ≥ 10 | 0.556
chain 1 Y103C W108N | 0.495 | 0.227
chain 1 S30P W33Q W36F | ≥ 10 | 0.838
chain 1 Y32G M34E | ≥ 10 | 0.194
chain 1 S101T Y103P | ≥ 10 | 0.643
chain 1 G100K G104H | ≥ 10 | 0.322
chain 1 M105G G109S | ≥ 10 | 0.794
chain 1 Y107Q W108Q | ≥ 10 | 0.385
chain 1 S101P Y103R | ≥ 10 | 0.277
chain 1 G104H W108R | ≥ 10 | 0.272
chain 1 N35W V37Q | ≥ 10 | 0.372
chain 1 M105I Y107Q | 8.13 | 0.872
chain 1 T28G V37P | 0.00519 | 0.581
chain 1 Y32T W36R | ≥ 10 | 0.193
chain 1 D31P W36I | ≥ 10 | 0.513
chain 1 W108Q G109Q | ≥ 10 | 0.278
chain 1 Y32R W36V | ≥ 10 | 0.547
chain 1 G104E M105V | ≥ 10 | 0.886
chain 1 G100V G104F | ≥ 10 | 0.472

Variant | Kd [1] [µM] | yeast surface expression [2]
chain 1 F29N M34A | ≥ 10 | 0.918
chain 1 F29A M34R | ≥ 10 | 1.01
chain 1 Y102M Y103F D106Y | ≥ 10 | 0.388
chain 1 G104W G109R | ≥ 10 | 0.171
chain 1 S30R V37M | ≤ 0.000316 | 1.02
chain 1 Y32V M34Q | ≥ 10 | 0.849
chain 1 G104L D106G | ≥ 10 | 0.169
chain 1 Y102R M105A | 8.56 | 1.1
chain 1 W33Y M34I | ≥ 10 | 0.771
chain 1 S30C W33L | ≥ 10 | 0.696
chain 1 W33K | ≥ 10 | 0.699
chain 1 W33A | ≥ 10 | 0.883
chain 1 Y103R G109V | ≥ 10 | 0.47
chain 1 S30R N35F | ≥ 10 | 0.413
chain 1 G104E W108S | ≥ 10 | 0.331
chain 1 Y102D M105I | ≥ 10 | 1.08
chain 1 G100Y G109L | ≥ 10 | 0.306
chain 1 S30T | 0.000743 | 1.07
chain 1 S30P | 0.00101 | 1.06
chain 1 S30W | 0.00215 | 0.701
